# According to patent US8404644 (MEAT AND LIVESTOCK AUSTRALIA, dated 2013):
# Molecular target: the molecule itself
# Test: gel filtration on Sephacryl 300 HR at pH 5.3 (self-association, homodimer)
protein,measurement,value
"bovine βB2 crystallin (other, N-terminus acetylated (as extracted from bovine eye), Native intact protein purified from bovine eye lens; Wound Heal 1 = gel filtration at pH 5.3; Wound Heal 2 = 100 kDa retentate plus gel filtration, and also holds some βA3 crystallin; also called Crystallin βB2; Wound Heal 1) ASDHQTQAGKPQPLNPKIIIFEQENFQGHSHELNGPCPNLKETGVEKAGSVLVQAGPWVGYEQANCKGEQFVFEKGEYPRWDSWTSSRRTDSLSSLRPIKVDSQEHKITLYENPNFTGKKMEVIDDDVPSFHAHGYQEKVSSVRVQSGTWVGYQYPGYRGLQYLLEKGDYKDSGDFGAPQPQVQSVRRIRDMQWHQRGAFHPSS",binding result,binds
